Series [1] relates to HeLa Kyoto. Put plainly: solubility in G1/S (NP-40 vs SDS abundance) (log2 ratio); higher = more soluble. The following applies: cell cycle stage: G1/S.
Series [2] has as its system HeLa Kyoto. Briefly: melting temperature (median over replicates), in situ; higher = more thermally stable.
Series [3] concerns HeLa Kyoto. Put plainly: solubility change mitosis vs G1/S (difference of NP-40 vs SDS log2 ratios) (log2 ratio difference); higher = more soluble in mitosis.
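For melting temperature (median over replicates), in situ in this document: HeLa Kyoto cells synchronized by double thymidine or nocodazole block, proteins quantified by TMT10plex mass spectrometry, three independent biological replicates.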
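For solubility change mitosis vs G1/S (difference of NP-40 vs SDS log2 ratios) in this document: synchronized HeLa Kyoto cells (double thymidine block for G1/S, nocodazole release for mitosis), protein amounts in NP-40 versus SDS lysates quantified by mass spectrometry, three biological replicates.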
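For solubility in G1/S (NP-40 vs SDS abundance) in this document: HeLa Kyoto cells arrested at G1/S by double thymidine block, proteins quantified by TMT10plex mass spectrometry in mild NP-40 versus SDS extracts, three biological replicates.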

“MRLAGPLRIVVLVVSVGVTWIVVSILLGGPGSGFPRIQQLFTSPESSVTAAPRARKYKCGLPQPCPEEHLAFRVVSGAANVIGPKICLEDKMLMSSVKDNVGRGLNIALVNGVSGELIEARAFDMWAGDVNDLLKFIRPLHEGTLVFVASYDDPATKMNEETRKLFSELGSRNAKELAFRDSWVFVGAKGVQNKSPFEQHVKNSKHSNKYEGWPEALEMEGCIPRRSTAS [FAM3A]”: the “solubility in G1/S (log2)” value with HeLa Kyoto [1] was -0.0403. The melting temperature with HeLa Kyoto [2] (cell cycle stage: G1/S) amounted to 51.9 °C; in the series with HeLa Kyoto [2] (cell cycle stage: mitosis) it was 52.8 °C. Further, the “solubility change mitosis (log2)” value with HeLa Kyoto [3] was -0.0146.
As for “MRMSDTVTVKDETATMKDLEAEVKDTTRVENLIKSENYGKILVEKNEHCIENNIDLQRPLQSFGQTGKRSKSSSKLKLVRSLAVCEESPPPPAPEISQENQEKIQIQLTQSFEKEEKPSKDEAEKEKASDKLPRKMLSRDSSQEYTDSTGIDLHEFLVNTLKNNPRDRMMLLKLEQEILDFIGNNESPRKKFPPMTSYHRMLLHRVAAYFGLDHNVDQSGKSVIVNKTSNTRIPDQKFNEHIKDDKGEDFQKRYILKRDNSSFDKDDNQMRIRLKDDRRSKSIEEREEEYQRARDRIFSQDSLCSQENYIIDKRLQDEDASSTQQRRQIFRVNKDASGRSTNSHQSSTENELKYSEPRPWSSTDSDSSLRNLKPAVTKASSFSGISVLTRGDSSGSSKSIGRLSKTGSESSGSVGSSTGSLSHIQQPLPGTALSQSSHGAPVVYPTVSTHSSLSFDGGLNGQVASPSTSFFLLPLEAAGIPPGSILINPQTGQPFINPDGSPVVYNPPMTQQPVRSQVPGPPQPPLPAPPQQPAANHIFSQDNLGSQFSHMSLARQPSADGSDPHAAMFQSTVVLQSPQQSGYIMTAAPPPHPPPPPPPPPPPPPLPPGQPVPTAGYPASGHPVSQPVLQQQGYIQQPSPQMPACYCAPGHYHSSQPQYRPVPSVHYNSHLNQPLPQPAQQTGYQVIPNQQQNYQGIVGVQQPQSQSLVSGQPNSIGNQIQGVVIPYTSVPTYQVSLPQGSQGIPHQTYQQPVMFPNQSNQGSMPTTGMPVYYSVIPPGQQNNLSSSVGYLQHPGSEQVQFPRTTSPCSSQQLQGHQCTAGPPPPPGGGMVMMQLSVPNNPQSCAHSPPQWKQNKYYCDHQRGQKCVEFSSVDNIVQHSPQLSSPIISPAQSPAPAQLSTLKTVRPSGPPLSIMPQFSRPFVPGQGDSRYPLLGQPLQYNPPAVLHGHIPNQQGQPGSRHGNRGRRQAKKAASTDLGAGETVVGKVLEITELPDGITRMEAEKLFGELFKIGAKIRWLRDPQSQPRRHPLCCGSGDNTANPERSKPSDLASTYTVLATFPSISAAQNALKKQINSVNKFKLRTSKKHYDFHILERASSQ [R3HDM1]”, in the series with HeLa Kyoto [1], the “solubility in G1/S (log2)” value was determined as 0.189. Further, the values for the melting temperature in the series with HeLa Kyoto [2] (cell cycle stage: G1/S) and in the series on HeLa Kyoto [2] (cell cycle stage: mitosis) were 52.3 °C and 50.9 °C, respectively. For the same sequence, the “solubility change mitosis (log2)” value in the series on HeLa Kyoto [3] was -0.239.
For “MRRSAAPSQLQGNSFKKPKFIPPGRSNPGLNEEITKLNPDIKLFEGVAINNTFLPSQNDLRICSLNLPSEESTREINNRDNCSGKYCFEAPTLATLDPPHTVHSAPKEVAVSKEQEEKSDSLVKYFSVVWCKPSKKKHKKWEGDAVLIVKGKSFILKNLEGKDIGRGIGYKFKELEKIEEGQTLMICGKEIEVMGVISPDDFSSGRCFQLGGGSTAISHSSQVARKCFSNPFKSVCKPSSKENRQNDFQNCKPRHDPYTPNSLVMPRPDKNHQWVFNKNCFPLVDVVIDPYLVYHLRPHQKEGIIFLYECVMGMRMNGRCGAILADEMGLGKTLQCISLIWTLQCQGPYGGKPVIKKTLIVTPGSLVNNWKKEFQKWLGSERIKIFTVDQDHKVEEFIKSIFYSVLIISYEMLLRSLDQIKNIKFDLLICDEGHRLKNSAIKTTTALISLSCEKRIILTGTPIQNDLQEFFALIDFVNPGILGSLSSYRKIYEEPIILSREPSASEEEKELGERRAAELTCLTGLFILRRTQEIINKYLPPKIENVVFCRPGALQIELYRKLLNSQVVRFCLQGLLENSPHLICIGALKKLCNHPCLLFNSIKEKECSSTCDKNEEKSLYKGLLSVFPADYNPLLFTEKESGKLQVLSKLLAVIHELRPTEKVVLVSNYTQTLNILQEVCKRHGYAYTRLDGQTPISQRQQIVDGFNSQHSSFFIFLLSSKAGGVGLNLIGGSHLILYDIDWNPATDIQAMSRVWRDGQKYPVHIYRLLTTGTIEEKIYQRQISKQGLCGAVVDLTKTSEHIQFSVEELKNLFTLHESSDCVTHDLLDCECTGEEVHTGDSLEKFIVSRDCQLGPHHQKSNSLKPLSMSQLKQWKHFSGDHLNLTDPFLERITENVSFIFQNITTQATGT [RAD54B]”, the “solubility in G1/S (log2)” value in the series with HeLa Kyoto [1] is -0.106. The melting temperature with HeLa Kyoto [2] (cell cycle stage: G1/S) came out at 46.5 °C; with HeLa Kyoto [2] (cell cycle stage: mitosis) it was 48.1 °C. In addition, in the series with HeLa Kyoto [3], the “solubility change mitosis (log2)” value is -0.0255.
For the sequence “MSAKPEVSLVREASRQIVAGGSAGLVEICLMHPLDVVKTRFQIQRCATDPNSYKSLVDSFRMIFQMEGLFGFYKGILPPILAETPKRAVKFFTFEQYKKLLGYVSLSPALTFAIAGLGSGLTEAIVVNPFEVVKVGLQANRNTFAEQPSTVGYARQIIKKEGWGLQGLNKGLTATLGRHGVFNMVYFGFYYNVKNMIPVNKDPILEFWRKFGIGLLSGTIASVINIPFDVAKSRIQGPQPVPGEIKYRTCFKTMATVYQEEGILALYKGLLPKIMRLGPGGAVMLLVYEYTYSWLQENW [SLC25A21]”, in the series on HeLa Kyoto [1], the “solubility in G1/S (log2)” value was -0.251. The melting temperature with HeLa Kyoto [2] (cell cycle stage: G1/S) amounted to 56.9 °C; in the series with HeLa Kyoto [2] (cell cycle stage: mitosis), 55.7 °C. Further, the “solubility change mitosis (log2)” value with HeLa Kyoto [3] was -0.00648.
Take “MSATSVDTQRTKGQDNKVQNGSLHQKDTVHDNDFEPYLTGQSNQSNSYPSMSDPYLSSYYPPSIGFPYSLNEAPWSTAGDPPIPYLTTYGQLSNGDHHFMHDAVFGQPGGLGNNIYQHRFNFFPENPAFSAWGTSGSQGQQTQSSAYGSSYTYPPSSLGGTVVDGQPGFHSDTLSKAPGMNSLEQGMVGLKIGDVSSSAVKTVGSVVSSVALTGVLSGNGGTNVNMPVSKPTSWAAIASKPAKPQPKMKTKSGPVMGGGLPPPPIKHNMDIGTWDNKGPVPKAPVPQQAPSPQAAPQPQQVAQPLPAQPPALAQPQYQSPQQPPQTRWVAPRNRNAAFGQSGGAGSDSNSPGNVQPNSAPSVESHPVLEKLKAAHSYNPKEFEWNLKSGRVFIIKSYSEDDIHRSIKYSIWCSTEHGNKRLDSAFRCMSSKGPVYLLFSVNGSGHFCGVAEMKSPVDYGTSAGVWSQDKWKGKFDVQWIFVKDVPNNQLRHIRLENNDNKPVTNSRDTQEVPLEKAKQVLKIISSYKHTTSIFDDFAHYEKRQEEEEVVRKERQSRNKQ [YTHDF1]”: the “solubility in G1/S (log2)” value in the series on HeLa Kyoto [1] is 0.14. The melting temperature in the series with HeLa Kyoto [2] (cell cycle stage: mitosis) is 47.8 °C. The “solubility change mitosis (log2)” value in the series with HeLa Kyoto [3] was -0.0272.
“MSEAYFRVESGALGPEENFLSLDDILMSHEKLPVRTETAMPRLGAFFLERSAGAETDNAVPQGSKLELPLWLAKGLFDNKRRILSVELPKIYQEGWRTVFSADPNVVDLHKMGPHFYGFGSQLLHFDSPENADISQSLLQTFIGRFRRIMDSSQNAYNEDTSALVARLDEMERGLFQTGQKGLNDFQCWEKGQASQITASNLVQNYKKRKFTDMED [GINS3]”: the “solubility in G1/S (log2)” value with HeLa Kyoto [1] is 0.471. Also, the melting temperature in the series on HeLa Kyoto [2] (cell cycle stage: G1/S) and in the series on HeLa Kyoto [2] (cell cycle stage: mitosis) was 51.7 °C throughout. Moreover, the “solubility change mitosis (log2)” value with HeLa Kyoto [3] is 0.225.
As to “MSEEEQGSGTTTGCGLPSIEQMLAANPGKTPISLLQEYGTRIGKTPVYDLLKAEGQAHQPNFTFRVTVGDTSCTGQGPSKKAAKHKAAEVALKHLKGGSMLEPALEDSSSFSPLDSSLPEDIPVFTAAAAATPVPSVVLTRSPPMELQPPVSPQQSECNPVGALQELVVQKGWRLPEYTVTQESGPAHRKEFTMTCRVERFIEIGSGTSKKLAKRNAAAKMLLRVHTVPLDARDGNEVEPDDDHFSIGVGSRLDGLRNRGPGCTWDSLRNSVGEKILSLRSCSLGSLGALGPACCRVLSELSEEQAFHVSYLDIEELSLSGLCQCLVELSTQPATVCHGSATTREAARGEAARRALQYLKIMAGSK [TARBP2]”, the “solubility in G1/S (log2)” value in the series on HeLa Kyoto [1] was determined as 0.152. Besides, the melting temperature in the series on HeLa Kyoto [2] (cell cycle stage: mitosis) is 51.7 °C. Besides, in the series with HeLa Kyoto [3], the “solubility change mitosis (log2)” value came out at 0.129.
